Columns and labels:
[1] = system: EcoHIV (ecotropic HIV-1 EcoNDK); assay: EcoHIV mouse model of HIV infection, Tat and Vif mRNA by qRT-PCR; format: in vivo, C57BL mice; settings: two intraperitoneal doses of 20 μg
Excerpt: The mouse model of HIV infection is well-known by persons skilled in the art and is widely used to study therapeutic activities of various pharmaceutical agents. It was generated by using chimeric HIV (EcoHIV), which is a modified HIV that can infect mouse T cells and macrophages and can establish persistent infection of immunocompetent mice after intravenous or intraperitoneal exposure (Potash et al., 2005). The EcoHIV infection mouse model reproduces many characteristics of HIV-1 infection in humans such as virus targeting to lymphocytes and macrophages, induction of antiviral immune responses, neuroinvasiveness, and elevation of expression of inflammatory and antiviral factors in the brain (Potash et al., 2005). […]
In this example, we started with three groups of C57BL mice (groups I, II and III), each group having three mice. […] The amount of EcoHIV-1 virus load was assessed by determining the messenger RNA (mRNA) levels of HIV-Tat and Vif genes by quantitative RT-PCR (qRT-PCR). The amount of HIV-1 Gag DNA in the each sample, which was also determined by qRT-PCR, was used as a quantitative control for the HIV-Tat and Vif mRNA levels. […]

X-DING-CD4 mRNA = assay: Induction of X-DING-CD4 mRNA expression in 1G5 cells (qRT-PCR); format: cell-based; settings: 6 hours, 200 ng/ml
Experimental: The sX-DING-CD4 may be released from the macropinosome to endoplasmic reticulum (ER) and cause induction of IFNα, which in turn induces the expression of X-DING-CD4 mRNA and endogenous X-DING-CD4 protein (step 2). The induction of X-DING-CD4 mRNA by sX-DING-CD4 was tested in 1G5 cells. Briefly, three groups of 1G5 cells were treated for 6 hours with NL4-3 HIV-1 at MOI of 0.1, 200 ng/ml native X-DING-CD4 protein, and 1-126 rX-DING-CD4 peptide (i.e., rX-DING-CD4^pep), respectively. […] The eX-DING-CD4, derived from the newly synthesized X-DING-CD4, binds CN and is transported into the nucleus where it blocks LTR transcription (steps 2-7).
Two peptide fragments from the N-terminal region of X-DING-CD4 were synthesized and their activities in inducing IFN-α and X-DING-CD4 mRNA expressions were determined by qRT-PCR. The concentration of proteins used in the assays was 200 ng/ml except for the combination of XD-1 and XD-4 where we used 100 ng/ml of each peptide. The 1-126 rX-DING-CD4 and peptide C3 p16 served as positive and negative controls, respectively. The C3 Peptide P16 was derived from the C3d component of serum complement. C3 Peptide P16 regulates B cells, but not T cells, through interacting with the gp140 C3d receptor (CR2).

B1: MADINGGGATLPQPLYQTSGVLTAGFAPYIGVGSGKGKLAFLNNDYSQFGTGTKNVHWAGSDSKLTSTELSTYASTKQAAWGKLIQVPSVATSVAIPFNKAGSNAVDLSVDQLCGVFSGRITTWNQ (protein, listed as Homo sapiens)
chain: MADINGGGATLPQPLYQTSGVLTAGFAPYIGVGSGKGKLAFLNNDYSQFGTGTKNVHWAGSDSKLTSTELSTYASTKQAAWGKLIQVPSVATSVAIPFNKAGSNAVDLSVDQLCGVFSGRITTWNQ
With B1 the “expression of EcoHIV Tat mRNA and vif mRNA versus saline or heat inactivated peptide” value ([1]; 48 hours) was “decreased expression”, the “transcription of EcoHIV blocked” value ([1]; two days after infection) was 75% and the “expression of X-DING-CD4 mRNA” value (X-DING-CD4 mRNA) was “induced expression of X-DING-CD4 mRNA”.

From patent US20140018288A1, “X-DING-CD4 Peptide” (priority 2012, published 2014)
